From patent US20240218374 come the findings set out here.

The target in data set [1] is authentic SARS-CoV-2 virus (VIC01, Clade B) spike (SARS-CoV-2) (UniProt P0DTC2). The experiment in a line: cell_activity. To be noted: Y=Tyr-dU, p=Nap-dC; printed GGGAYApYAYGpGYppGAppGpYpGGApG [Tyr-dU: 5,8,10,14,23; Nap-dC: 7,12,15,16,19,20,22,24,28].
The target of a further data set is Spike S1 (SARS-CoV-2) (UniProt P0DTC2). The experiment in a line: filter. To be noted: Y=Tyr-dU, p=Nap-dC; printed CCTTGGGAYApYAYGpGYppGAppGpYpGGApGGAGAAGG [Tyr-dU: 9,12,14,18,27; Nap-dC: 11,16,19,20,23,24,26,28,32].
Data set [2] has as its target Spike RBD-mFc (ACE2 inhibition assay) (SARS-CoV-2) (UniProt P0DTC2). Put plainly: inhibition. To be noted: Y=Tyr-dU, p=Nap-dC; printed CCTTGGGAYApYAYGpGYppGAppGpYpGGApGGAGAAGG [Tyr-dU: 9,12,14,18,27; Nap-dC: 11,16,19,20,23,24,26,28,32].

The term IC50 denotes the concentration at which inhibition is half-maximal. Higher therefore signals weaker potency. Regarding “GGGATACTATGCGTCCGACCGCTCGGACG [26874-29_20 (SL1111_20)]”, the IC50 in data set [1] is 1.1 nM.
The Kd is a measure of binding affinity in units of concentration. Usually EC50 stands for the concentration needed to bring the measured effect to its halfway point. The low end stands for higher potency in that assay, the high end for lower potency in that assay. In turn, “CCTTGGGATACTATGCGTCCGACCGCTCGGACGGAGAAGG [26874-29_4 (SL1111)]” displayed a Kd with Spike S1 (SARS-CoV-2) of 3.2 nM. In data set [2], the EC50 stood at 4.2 nM.
